Earlier results on one substance are cited in paper PMC3970081.

For this data set, the target named is KIF5B tail (Rattus norvegicus) (UniProt Q2PQA9). The experiment in a line: SPR. For orientation: SPR reads the build-up and loss of mass on a sensor chip optically.
Chain of KIF5B tail (Rattus norvegicus) (Q2PQA9 758-963): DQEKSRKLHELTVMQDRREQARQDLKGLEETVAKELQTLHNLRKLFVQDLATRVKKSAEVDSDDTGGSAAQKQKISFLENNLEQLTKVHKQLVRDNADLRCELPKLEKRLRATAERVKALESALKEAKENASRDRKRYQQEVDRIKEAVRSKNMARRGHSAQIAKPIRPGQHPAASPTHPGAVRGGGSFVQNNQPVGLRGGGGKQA

Chain of Kv3.1 T1 domain (P25122 1-129): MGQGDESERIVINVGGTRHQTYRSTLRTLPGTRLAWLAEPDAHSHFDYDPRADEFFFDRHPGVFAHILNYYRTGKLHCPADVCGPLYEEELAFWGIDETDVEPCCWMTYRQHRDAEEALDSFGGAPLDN

For orientation: Kd means the constant that tells how readily two partners part at equilibrium. Kv3.1 T1 domain (from UniProt P25122): the Kd was 0.06 µM.
